pKd: −log10 of the molar value.
Legend:
[1] = target: BRPF2 bromodomain, wild-type, N-terminal His6-tagged (UniProt O95696); assay: pull-down
[2] = target: BRPF2 bromodomain F648A mutant (UniProt O95696); assay: pull-down
[3] = target: BRPF2 bromodomain, wild-type, N-terminal His6-tagged (UniProt O95696); assay: ITC

BRPF2 bromodomain, wild-type, N-terminal His6-tagged, sequence (O95696 556-688): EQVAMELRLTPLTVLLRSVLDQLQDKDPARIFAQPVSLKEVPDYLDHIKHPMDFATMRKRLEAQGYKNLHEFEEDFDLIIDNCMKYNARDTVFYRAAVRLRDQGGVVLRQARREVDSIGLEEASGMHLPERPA
BRPF2 bromodomain F648A mutant, sequence (O95696 556-688 F648A): as the sequence (O95696 556-688) above, with F93A counted along it

**Q.** With “endogenous hyperacetylated histone H4 bearing the K5ac mark (from UniProt P62805 1-103) (natural protein)” as the substance, how does the fold reduction of binding with BAY-299 against without inhibitor [1] read?
**A.** The fold reduction of binding with BAY-299 against without inhibitor was 3 fold.

**Q.** What about the fold reduction of binding against the wild type [2] of the same substance?
**A.** The fold reduction of binding against the wild type was 1.5 fold.

**Q.** With “histone H2AK5ac (1-12) peptide (from UniProt P0C0S8 2-13)” as the substance, how does the pKd [3] read?
**A.** Its pKd is 4.26.

**Q.** “histone H4Kac4 (H4K5/8/12/16) (1-20) peptide (from UniProt P62805 2-21)” was tested. Which pKd [3] did it give?
**A.** Its pKd is 4.91.

From publication doi:10.1101/2022.02.20.481182
